# Source: patent US20250197503A1 (SHANGHAI INSTITUTE OF MATERIA MEDICA CHINESE ACADEMY OF …, published 2025)
# B1: h_Nb1_G99Q (VHH)
# VHH: DVQLQESGGGLVQPGGSLRLSCAASGFTFSSYAMSWVRQAPGKGLEWVSDINSGGDNTDYADSVKGRFTISRDNAKNTLYLQMNSLKPEDTAVYYCARQPKLCFSSWGQGTQVTVSS
# notes: also called 84
# B2: h_Nb1_D62Y (VHH)
# VHH: DVQLQESGGGLVQPGGSLRLSCAASGFTFSSYAMSWVRQAPGKGLEWVSDINSGGDNTDYAYSVKGRFTISRDNAKNTLYLQMNSLKPEDTAVYYCARGPKLCFSSWGQGTQVTVSS
# notes: also called 79
# B3: h_Nb1_A61N (VHH)
# VHH: DVQLQESGGGLVQPGGSLRLSCAASGFTFSSYAMSWVRQAPGKGLEWVSDINSGGDNTDYNDSVKGRFTISRDNAKNTLYLQMNSLKPEDTAVYYCARGPKLCFSSWGQGTQVTVSS
# notes: also called 72
# B4: h_Nb1_D59F (VHH)
# VHH: DVQLQESGGGLVQPGGSLRLSCAASGFTFSSYAMSWVRQAPGKGLEWVSDINSGGDNTFYADSVKGRFTISRDNAKNTLYLQMNSLKPEDTAVYYCARGPKLCFSSWGQGTQVTVSS
# notes: also called 77
# B5: h_Nb1_G99R (VHH)
# VHH: DVQLQESGGGLVQPGGSLRLSCAASGFTFSSYAMSWVRQAPGKGLEWVSDINSGGDNTDYADSVKGRFTISRDNAKNTLYLQMNSLKPEDTAVYYCARRPKLCFSSWGQGTQVTVSS
# notes: also called 83
# B6: h_Nb1_C103W (VHH)
# VHH: DVQLQESGGGLVQPGGSLRLSCAASGFTFSSYAMSWVRQAPGKGLEWVSDINSGGDNTDYADSVKGRFTISRDNAKNTLYLQMNSLKPEDTAVYYCARGPKLWFSSWGQGTQVTVSS
# notes: also called 82
# B7: h_Nb1_D59R (VHH)
# VHH: DVQLQESGGGLVQPGGSLRLSCAASGFTFSSYAMSWVRQAPGKGLEWVSDINSGGDNTRYADSVKGRFTISRDNAKNTLYLQMNSLKPEDTAVYYCARGPKLCFSSWGQGTQVTVSS
# notes: also called 75
# B8: h_Nb1_C103K (VHH)
# VHH: DVQLQESGGGLVQPGGSLRLSCAASGFTFSSYAMSWVRQAPGKGLEWVSDINSGGDNTDYADSVKGRFTISRDNAKNTLYLQMNSLKPEDTAVYYCARGPKLKFSSWGQGTQVTVSS
# notes: also called 80
# B9: h_Nb1_C103M (VHH)
# VHH: DVQLQESGGGLVQPGGSLRLSCAASGFTFSSYAMSWVRQAPGKGLEWVSDINSGGDNTDYADSVKGRFTISRDNAKNTLYLQMNSLKPEDTAVYYCARGPKLMFSSWGQGTQVTVSS
# notes: also called 81
# B10: h_Nb1_D59M (VHH)
# VHH: DVQLQESGGGLVQPGGSLRLSCAASGFTFSSYAMSWVRQAPGKGLEWVSDINSGGDNTMYADSVKGRFTISRDNAKNTLYLQMNSLKPEDTAVYYCARGPKLCFSSWGQGTQVTVSS
# notes: also called 76
# B11: h_Nb1_A61Q (VHH)
# VHH: DVQLQESGGGLVQPGGSLRLSCAASGFTFSSYAMSWVRQAPGKGLEWVSDINSGGDNTDYQDSVKGRFTISRDNAKNTLYLQMNSLKPEDTAVYYCARGPKLCFSSWGQGTQVTVSS
# notes: also called 73
# B12: h_Nb1_G99W (VHH)
# VHH: DVQLQESGGGLVQPGGSLRLSCAASGFTFSSYAMSWVRQAPGKGLEWVSDINSGGDNTDYADSVKGRFTISRDNAKNTLYLQMNSLKPEDTAVYYCARWPKLCFSSWGQGTQVTVSS
# notes: also called 85
# B13: h_Nb1_A61K (VHH)
# VHH: DVQLQESGGGLVQPGGSLRLSCAASGFTFSSYAMSWVRQAPGKGLEWVSDINSGGDNTDYKDSVKGRFTISRDNAKNTLYLQMNSLKPEDTAVYYCARGPKLCFSSWGQGTQVTVSS
# notes: also called 74
# B14: h_Nb1_D62W (VHH)
# VHH: DVQLQESGGGLVQPGGSLRLSCAASGFTFSSYAMSWVRQAPGKGLEWVSDINSGGDNTDYAWSVKGRFTISRDNAKNTLYLQMNSLKPEDTAVYYCARGPKLCFSSWGQGTQVTVSS
# notes: also called 78
# B15: h_Nb1_G99Y (VHH)
# VHH: DVQLQESGGGLVQPGGSLRLSCAASGFTFSSYAMSWVRQAPGKGLEWVSDINSGGDNTDYADSVKGRFTISRDNAKNTLYLQMNSLKPEDTAVYYCARYPKLCFSSWGQGTQVTVSS
# notes: also called 86
# B16: h_Nb2_F29R (VHH)
# VHH: DVQLQESGGGLVQPGGSLRLSCAASGFTRGDRWMYWLRQAPGKGLEWVSSINPAGRSTYYADSVKGRFTISRDNAKNTLYLQMNSLKSEDTAVYYCTKDPGGYQKGQGTQVTVSS
# notes: also called 93
# B17: h_Nb2_G101Y (VHH)
# VHH: DVQLQESGGGLVQPGGSLRLSCAASGFTFGDRWMYWLRQAPGKGLEWVSSINPAGRSTYYADSVKGRFTISRDNAKNTLYLQMNSLKSEDTAVYYCTKDPYGYQKGQGTQVTVSS
# notes: also called 92
# B18: h_Nb2_G30W (VHH)
# VHH: DVQLQESGGGLVQPGGSLRLSCAASGFTFWDRWMYWLRQAPGKGLEWVSSINPAGRSTYYADSVKGRFTISRDNAKNTLYLQMNSLKSEDTAVYYCTKDPGGYQKGQGTQVTVSS
# notes: also called 89
# B19: h_Nb2_G30F (VHH)
# VHH: DVQLQESGGGLVQPGGSLRLSCAASGFTFFDRWMYWLRQAPGKGLEWVSSINPAGRSTYYADSVKGRFTISRDNAKNTLYLQMNSLKSEDTAVYYCTKDPGGYQKGQGTQVTVSS
# notes: also called 88
# B20: h_Nb2_G101W (VHH)
# VHH: DVQLQESGGGLVQPGGSLRLSCAASGFTFGDRWMYWLRQAPGKGLEWVSSINPAGRSTYYADSVKGRFTISRDNAKNTLYLQMNSLKSEDTAVYYCTKDPWGYQKGQGTQVTVSS
# notes: also called 91
# B21: h_Nb2_P100E (VHH)
# VHH: DVQLQESGGGLVQPGGSLRLSCAASGFTFGDRWMYWLRQAPGKGLEWVSSINPAGRSTYYADSVKGRFTISRDNAKNTLYLQMNSLKSEDTAVYYCTKDEGGYQKGQGTQVTVSS
# notes: also called 97
# B22: h_Nb2_F29W (VHH)
# VHH: DVQLQESGGGLVQPGGSLRLSCAASGFTWGDRWMYWLRQAPGKGLEWVSSINPAGRSTYYADSVKGRFTISRDNAKNTLYLQMNSLKSEDTAVYYCTKDPGGYQKGQGTQVTVSS
# notes: also called 94
# B23: h_Nb2_P100R (VHH)
# VHH: DVQLQESGGGLVQPGGSLRLSCAASGFTFGDRWMYWLRQAPGKGLEWVSSINPAGRSTYYADSVKGRFTISRDNAKNTLYLQMNSLKSEDTAVYYCTKDRGGYQKGQGTQVTVSS
# notes: also called 95
# B24: h_Nb2_G30R (VHH)
# VHH: DVQLQESGGGLVQPGGSLRLSCAASGFTFRDRWMYWLRQAPGKGLEWVSSINPAGRSTYYADSVKGRFTISRDNAKNTLYLQMNSLKSEDTAVYYCTKDPGGYQKGQGTQVTVSS
# notes: also called 87
# B25: h_Nb2_P100Q (VHH)
# VHH: DVQLQESGGGLVQPGGSLRLSCAASGFTFGDRWMYWLRQAPGKGLEWVSSINPAGRSTYYADSVKGRFTISRDNAKNTLYLQMNSLKSEDTAVYYCTKDQGGYQKGQGTQVTVSS
# notes: also called 96
# B26: h_Nb2_G101R (VHH)
# VHH: DVQLQESGGGLVQPGGSLRLSCAASGFTFGDRWMYWLRQAPGKGLEWVSSINPAGRSTYYADSVKGRFTISRDNAKNTLYLQMNSLKSEDTAVYYCTKDPRGYQKGQGTQVTVSS
# notes: also called 90
# B27: h_Nb1 VHH (VHH)
# VHH: DVQLQESGGGLVQPGGSLRLSCAASGFTFSSYAMSWVRQAPGKGLEWVSDINSGGDNTDYADSVKGRFTISRDNAKNTLYLQMNSLKPEDTAVYYCARGPKLCFSSWGQGTQVTVSS
# B28: h_Nb13 VHH (VHH)
# VHH: DVQLQESGGGLVQPGGSLRLSCAASGSIFSINAMGWYRQAPGKSRELVAAITSGGSTNYADSVKGRFTISRDTAKNTVYLLMNSLEPEDTAVYYCNVERRRPPHYLSEYDFDWGQGTQVTVSS
# Target: T1, human PD-L1 protein (ELISA antigen) (human, UniProt Q9NZQ7 19-238, limits assumed)
# T1 construct: One molecule is used for both ELISAs; also called PD-L1-biotin protein
# Test: relative to original antibody h_Nb1 (SEQ ID NO. 1); ELISA comparison per Example 10
# T1 sequence (Q9NZQ7 19-238 limits assumed): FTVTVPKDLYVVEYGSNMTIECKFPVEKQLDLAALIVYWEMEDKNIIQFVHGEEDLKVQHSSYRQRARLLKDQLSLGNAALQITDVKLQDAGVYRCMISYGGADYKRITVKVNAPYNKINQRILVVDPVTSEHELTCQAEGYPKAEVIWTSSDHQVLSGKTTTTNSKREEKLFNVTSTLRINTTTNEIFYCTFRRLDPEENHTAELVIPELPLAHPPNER
row,Binder,Improved value of relative affinity
1,B1,6.16
2,B2,5.8
3,B3,5.13
4,B4,5.12
5,B5,12.1
6,B6,3.83
7,B7,4.28
8,B8,3.31
9,B9,3.38
10,B10,4.9
11,B11,4.66
12,B12,6.16
13,B13,4.12
14,B14,11.7
15,B15,7.02

# Target: T1, human PD-L1 protein (ELISA antigen)
# Test: relative to original antibody h_Nb2 (SEQ ID NO. 5); ELISA comparison per Example 10
row,Binder,Improved value of relative affinity
1,B16,1.46
2,B17,8.48
3,B18,10
4,B19,5.11
5,B20,5.92
6,B21,3.98
7,B22,1.44
8,B23,7.21
9,B24,6.23
10,B25,3.41
11,B26,6.5

# Target: T1, human PD-L1 protein (ELISA antigen)
# Test: ELISA; PD-L1 protein on NeutrAvidin plate, crude nanobody, anti-HA detection; positive = absorbance more than three times control
# Protocol: After several rounds of panning, TG1 competent cells in the logarithmic phase of growth were infected with the eluted phages, gradiently diluted and spread on the plate for overnight culture. 96 clones were picked and inoculated into a 96-well round-bottom plate with 100 μL of culture medium per well and left to be incubated overnight as the master plate. Then 10 μL of overnight cultured bacterial solution was pipetted into a 96-well deep-bottom plate with 1 mL of culture medium per well to induce nanobody expression which was then subjected to crude purification. The 96-well ELISA plate was coated with 5 μg/mL NeutrAvidin solution at 4° C., 700 rpm, overnight. The next day, 2% skim milk powder was added to block the plate at room temperature and washed 3 times with a solution containing bovine serum albumin BSA. 100 μL 3 μg/mL PD-L1 protein was added and incubated at room temperature for 30 minutes, then washed. The crudely extracted nanobody was added and incubated at room temperature for 1 h followed by washing. Mouse anti-HA primary antibody was added and the mixture was incubated at room temperature for 1 hour followed by washing. Goat anti-mouse alkaline phosphatase-labeled secondary antibody was added and the mixture was incubated at room temperature for 1 hour followed by washing. Alkaline phosphatase colorimetric solution was added for 10 minutes, and the absorption value was detected at 405 nm on a microplate reader. A well with an absorption value that is more than three times the absorption value of the control group is preliminarily determined as a positive well. The positive clones were transferred to a shaking tube for culture in order to extract the plasmid and then subjected to sequencing. Finally, 11 candidate positive clones were obtained.
row,Binder,binding result
1,B27,binds
2,B28,binds
